Source: paper PMC5032119

Biological target: Ku70-HisTag (mouse) (UniProt P23475)
Assay: fluorescence polarisation; FIDA-PO on an MF20 (Olympus) single molecule fluorescence spectroscopy; 5 nM fluorescent Ku70-HisTag in solution, 500 nM GST-HttExon1-110Q added; 40 ul per well, 384-well glass-bottom plate, PBS with 0.01% Tween 20 and 1% DMSO, room temperature

GST-HttExon1-110Q, sequence (P42858 whole entry, change not shown): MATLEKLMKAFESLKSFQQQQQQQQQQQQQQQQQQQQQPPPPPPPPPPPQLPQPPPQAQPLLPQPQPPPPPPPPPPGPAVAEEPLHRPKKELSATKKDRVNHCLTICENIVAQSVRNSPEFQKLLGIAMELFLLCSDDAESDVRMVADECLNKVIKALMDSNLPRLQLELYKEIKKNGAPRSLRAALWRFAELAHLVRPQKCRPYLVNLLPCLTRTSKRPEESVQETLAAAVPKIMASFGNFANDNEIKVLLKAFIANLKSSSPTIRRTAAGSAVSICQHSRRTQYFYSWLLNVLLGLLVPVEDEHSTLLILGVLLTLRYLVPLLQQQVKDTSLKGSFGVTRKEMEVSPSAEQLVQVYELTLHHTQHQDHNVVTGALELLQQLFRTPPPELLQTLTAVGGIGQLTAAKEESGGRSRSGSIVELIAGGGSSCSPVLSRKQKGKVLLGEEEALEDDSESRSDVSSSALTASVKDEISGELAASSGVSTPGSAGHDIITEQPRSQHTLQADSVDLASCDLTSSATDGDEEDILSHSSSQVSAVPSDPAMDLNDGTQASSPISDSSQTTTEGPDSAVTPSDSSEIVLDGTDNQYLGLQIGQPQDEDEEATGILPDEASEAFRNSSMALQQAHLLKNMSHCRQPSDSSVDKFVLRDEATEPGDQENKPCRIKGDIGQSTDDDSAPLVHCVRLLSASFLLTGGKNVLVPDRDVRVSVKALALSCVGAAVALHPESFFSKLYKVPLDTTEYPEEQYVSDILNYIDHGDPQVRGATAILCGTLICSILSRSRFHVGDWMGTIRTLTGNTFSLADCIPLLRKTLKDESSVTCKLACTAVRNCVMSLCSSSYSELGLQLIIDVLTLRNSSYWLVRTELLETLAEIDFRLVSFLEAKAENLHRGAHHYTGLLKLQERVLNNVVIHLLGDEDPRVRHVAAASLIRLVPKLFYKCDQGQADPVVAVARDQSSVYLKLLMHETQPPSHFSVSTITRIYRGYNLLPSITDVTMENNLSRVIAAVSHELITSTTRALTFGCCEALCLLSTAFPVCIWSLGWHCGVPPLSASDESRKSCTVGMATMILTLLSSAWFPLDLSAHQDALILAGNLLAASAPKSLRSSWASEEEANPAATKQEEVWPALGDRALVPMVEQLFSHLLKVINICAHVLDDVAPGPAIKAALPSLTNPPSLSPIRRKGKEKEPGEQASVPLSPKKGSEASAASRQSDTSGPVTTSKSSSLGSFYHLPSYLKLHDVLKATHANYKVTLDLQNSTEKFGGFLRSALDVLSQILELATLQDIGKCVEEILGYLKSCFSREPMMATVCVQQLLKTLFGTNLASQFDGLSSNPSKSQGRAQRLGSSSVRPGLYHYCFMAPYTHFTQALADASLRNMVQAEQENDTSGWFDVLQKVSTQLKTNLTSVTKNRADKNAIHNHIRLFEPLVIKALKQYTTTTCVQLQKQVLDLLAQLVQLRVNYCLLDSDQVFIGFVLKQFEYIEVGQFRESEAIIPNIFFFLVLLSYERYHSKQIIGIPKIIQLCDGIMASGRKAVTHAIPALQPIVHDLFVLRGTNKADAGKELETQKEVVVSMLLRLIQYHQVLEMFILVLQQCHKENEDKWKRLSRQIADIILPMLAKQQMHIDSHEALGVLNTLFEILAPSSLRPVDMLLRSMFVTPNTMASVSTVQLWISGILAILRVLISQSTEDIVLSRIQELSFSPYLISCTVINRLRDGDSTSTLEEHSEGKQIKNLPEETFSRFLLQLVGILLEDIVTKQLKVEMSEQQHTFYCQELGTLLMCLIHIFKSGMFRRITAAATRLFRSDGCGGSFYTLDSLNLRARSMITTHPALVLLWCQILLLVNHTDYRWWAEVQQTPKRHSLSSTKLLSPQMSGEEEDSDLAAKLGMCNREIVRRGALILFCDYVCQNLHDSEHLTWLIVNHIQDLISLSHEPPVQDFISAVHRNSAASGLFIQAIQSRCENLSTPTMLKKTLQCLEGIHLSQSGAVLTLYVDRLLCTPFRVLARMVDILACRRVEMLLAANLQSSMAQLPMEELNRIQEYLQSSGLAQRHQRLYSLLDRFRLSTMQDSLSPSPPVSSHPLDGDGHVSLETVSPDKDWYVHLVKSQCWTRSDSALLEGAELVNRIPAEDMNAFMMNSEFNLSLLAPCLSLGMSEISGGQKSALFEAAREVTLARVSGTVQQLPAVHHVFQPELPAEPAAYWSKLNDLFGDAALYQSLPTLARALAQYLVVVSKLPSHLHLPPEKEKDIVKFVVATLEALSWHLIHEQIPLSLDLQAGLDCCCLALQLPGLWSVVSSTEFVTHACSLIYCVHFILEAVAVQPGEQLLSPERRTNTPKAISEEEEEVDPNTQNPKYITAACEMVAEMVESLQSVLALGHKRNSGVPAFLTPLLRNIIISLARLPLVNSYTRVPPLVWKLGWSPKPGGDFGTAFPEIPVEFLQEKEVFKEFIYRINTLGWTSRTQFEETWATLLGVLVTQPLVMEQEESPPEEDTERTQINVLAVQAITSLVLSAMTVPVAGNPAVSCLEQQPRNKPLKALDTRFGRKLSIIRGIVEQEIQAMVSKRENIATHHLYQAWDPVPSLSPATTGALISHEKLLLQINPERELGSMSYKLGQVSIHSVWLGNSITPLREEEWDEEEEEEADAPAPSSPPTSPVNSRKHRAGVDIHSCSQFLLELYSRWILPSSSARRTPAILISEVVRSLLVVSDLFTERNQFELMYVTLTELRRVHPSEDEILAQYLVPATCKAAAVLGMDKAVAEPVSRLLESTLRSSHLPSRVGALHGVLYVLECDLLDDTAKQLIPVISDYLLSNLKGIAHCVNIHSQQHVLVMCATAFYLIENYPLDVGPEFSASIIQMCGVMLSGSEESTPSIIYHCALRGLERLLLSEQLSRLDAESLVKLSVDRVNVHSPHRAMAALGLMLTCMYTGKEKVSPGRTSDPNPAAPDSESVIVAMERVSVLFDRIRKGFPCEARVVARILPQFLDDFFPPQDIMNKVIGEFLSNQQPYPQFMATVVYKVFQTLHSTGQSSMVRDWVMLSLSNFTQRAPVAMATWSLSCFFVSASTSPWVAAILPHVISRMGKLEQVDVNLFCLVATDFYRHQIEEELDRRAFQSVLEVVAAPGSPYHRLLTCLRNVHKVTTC
UniProt P23475, sequence (P23475 whole entry): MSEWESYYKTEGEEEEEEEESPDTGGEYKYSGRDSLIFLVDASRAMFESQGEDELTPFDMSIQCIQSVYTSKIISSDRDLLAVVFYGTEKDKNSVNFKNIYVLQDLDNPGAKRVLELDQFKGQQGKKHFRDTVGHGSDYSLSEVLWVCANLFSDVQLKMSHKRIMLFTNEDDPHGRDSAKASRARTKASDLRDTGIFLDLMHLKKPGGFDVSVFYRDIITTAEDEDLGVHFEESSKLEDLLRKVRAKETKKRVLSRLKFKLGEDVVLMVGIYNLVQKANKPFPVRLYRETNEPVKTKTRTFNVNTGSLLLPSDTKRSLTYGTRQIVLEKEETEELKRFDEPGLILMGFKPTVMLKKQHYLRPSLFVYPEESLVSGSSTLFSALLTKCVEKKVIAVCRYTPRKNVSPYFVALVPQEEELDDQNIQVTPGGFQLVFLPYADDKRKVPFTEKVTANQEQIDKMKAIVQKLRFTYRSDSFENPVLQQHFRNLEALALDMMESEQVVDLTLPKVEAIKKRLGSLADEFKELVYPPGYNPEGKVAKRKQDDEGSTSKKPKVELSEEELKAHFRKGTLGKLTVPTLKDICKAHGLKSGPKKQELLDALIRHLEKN

fluorescence polarization score: 140
Substance: GST-HttExon1-110Q (domain or fragment)
